In PMC5238595:

Experiments:
[1] = molecular target: hybrid PCP-X construct: A47934 PCP-domain and teicoplanin X-domain, with MBP as N-terminal fusion partner (Streptomyces toyocaensis | Actinoplanes teichomyceticus) (UniProt Q70AZ6)
[2] = molecular target: hybrid PCP-X construct: teicoplanin PCP-domain and A47934 X-domain, with MBP as N-terminal fusion partner (Actinoplanes teichomyceticus | Streptomyces toyocaensis)
[3] = molecular target: PCP-X construct from teicoplanin biosynthesis with MBP as N-terminal fusion partner (Actinoplanes teichomyceticus) (UniProt Q70AZ6)
[4] = molecular target: A47934 PCP-X di-domain construct with maltose binding protein as N-terminal fusion partner (Streptomyces toyocaensis)

Sequence of UniProt Q70AZ6 (Q70AZ6 entry or part of it): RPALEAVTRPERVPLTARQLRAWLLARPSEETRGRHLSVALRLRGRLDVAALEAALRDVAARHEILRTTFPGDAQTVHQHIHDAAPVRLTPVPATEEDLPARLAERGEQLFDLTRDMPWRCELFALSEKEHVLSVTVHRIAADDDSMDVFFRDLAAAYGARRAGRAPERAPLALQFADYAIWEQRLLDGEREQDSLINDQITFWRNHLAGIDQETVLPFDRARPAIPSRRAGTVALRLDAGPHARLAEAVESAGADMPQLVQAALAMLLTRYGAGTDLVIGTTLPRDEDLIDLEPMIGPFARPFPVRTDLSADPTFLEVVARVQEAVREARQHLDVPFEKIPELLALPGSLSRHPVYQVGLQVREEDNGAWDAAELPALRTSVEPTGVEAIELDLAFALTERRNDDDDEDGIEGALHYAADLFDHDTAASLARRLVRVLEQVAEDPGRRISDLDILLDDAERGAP

StaF, the D-O-E ring forming Oxy enzyme (cytochrome P450) from A47934 biosynthesis
StaF turnover activity (bicyclic product / sum of mono- and bicyclic product, HPLC-MS) on Act7-rac-Hpg7 bound to MBP-PCPsta-Xtei, with StaH (entry 12) [1]: 7.8% | StaF turnover activity (bicyclic product / sum of mono- and bicyclic product, HPLC-MS) on Tei7-L-Hpg7 bound to MBP-PCPsta-Xtei, with StaH (entry 9) [1]: 2.9% | StaF turnover activity (bicyclic product / sum of mono- and bicyclic product, HPLC-MS) on Act7-rac-Hpg7 bound to MBP-PCPtei-Xsta, with StaH (entry 16) [2]: 31.5% | StaF turnover activity (bicyclic product / sum of mono- and bicyclic product, HPLC-MS) on Tei7-L-Hpg7 bound to MBP-PCPtei-Xsta, with StaH (entry 13) [2]: 21.1% | StaF turnover activity (bicyclic product / sum of mono- and bicyclic product, HPLC-MS) on Act7-rac-Hpg7 bound to MBP-PCP-Xtei, with StaH (entry 8) [3]: 24.9% | StaF turnover activity (bicyclic product / sum of mono- and bicyclic product, HPLC-MS) on Tei7-L-Hpg7 bound to MBP-PCP-Xtei, with StaH (entry 5) [3]: 5.7% | StaF turnover activity (bicyclic product / sum of mono- and bicyclic product, HPLC-MS) on Act7-rac-Hpg7 bound to MBP-PCP-Xsta, with StaH (entry 4) [4]: 25.5% | StaF turnover activity (bicyclic product / sum of mono- and bicyclic product, HPLC-MS) on Tei7-L-Hpg7 bound to MBP-PCP-Xsta, with StaH (entry 1) [4]: 23.8%
